Results on two molecules are retold here after US20250242041A1 (Seagen, published 2025).

Assay [1] has as its target T1, human αvβ6 on 293F:huβ6 cells (human, UniProt P06756 31-1048; P18564 22-788).
T1 chain 1: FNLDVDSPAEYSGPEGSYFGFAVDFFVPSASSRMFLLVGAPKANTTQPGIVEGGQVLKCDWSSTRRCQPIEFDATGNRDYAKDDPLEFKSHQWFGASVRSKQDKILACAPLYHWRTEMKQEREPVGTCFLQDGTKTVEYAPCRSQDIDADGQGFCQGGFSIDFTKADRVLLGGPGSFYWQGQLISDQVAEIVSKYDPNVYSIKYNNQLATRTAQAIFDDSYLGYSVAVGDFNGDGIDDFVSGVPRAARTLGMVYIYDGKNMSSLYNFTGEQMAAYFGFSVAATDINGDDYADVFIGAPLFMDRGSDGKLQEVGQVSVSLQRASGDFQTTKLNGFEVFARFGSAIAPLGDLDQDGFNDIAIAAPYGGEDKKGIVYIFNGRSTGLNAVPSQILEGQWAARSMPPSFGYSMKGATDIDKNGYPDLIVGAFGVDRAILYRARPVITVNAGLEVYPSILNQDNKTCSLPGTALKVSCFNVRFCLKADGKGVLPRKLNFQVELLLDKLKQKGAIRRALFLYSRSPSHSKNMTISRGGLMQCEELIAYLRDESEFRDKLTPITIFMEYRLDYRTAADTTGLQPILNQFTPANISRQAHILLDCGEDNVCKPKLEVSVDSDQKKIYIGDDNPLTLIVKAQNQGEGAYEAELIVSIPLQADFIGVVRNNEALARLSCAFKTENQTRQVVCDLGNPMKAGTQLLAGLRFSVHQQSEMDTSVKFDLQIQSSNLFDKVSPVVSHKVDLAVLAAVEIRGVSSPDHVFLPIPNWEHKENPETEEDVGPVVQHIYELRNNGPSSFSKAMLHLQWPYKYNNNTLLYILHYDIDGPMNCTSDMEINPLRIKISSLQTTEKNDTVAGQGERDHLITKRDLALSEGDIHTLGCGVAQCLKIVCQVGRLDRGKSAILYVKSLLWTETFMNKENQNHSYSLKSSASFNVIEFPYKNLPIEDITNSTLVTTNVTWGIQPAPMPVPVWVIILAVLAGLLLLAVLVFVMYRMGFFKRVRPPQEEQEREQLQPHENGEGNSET
T1 chain 2: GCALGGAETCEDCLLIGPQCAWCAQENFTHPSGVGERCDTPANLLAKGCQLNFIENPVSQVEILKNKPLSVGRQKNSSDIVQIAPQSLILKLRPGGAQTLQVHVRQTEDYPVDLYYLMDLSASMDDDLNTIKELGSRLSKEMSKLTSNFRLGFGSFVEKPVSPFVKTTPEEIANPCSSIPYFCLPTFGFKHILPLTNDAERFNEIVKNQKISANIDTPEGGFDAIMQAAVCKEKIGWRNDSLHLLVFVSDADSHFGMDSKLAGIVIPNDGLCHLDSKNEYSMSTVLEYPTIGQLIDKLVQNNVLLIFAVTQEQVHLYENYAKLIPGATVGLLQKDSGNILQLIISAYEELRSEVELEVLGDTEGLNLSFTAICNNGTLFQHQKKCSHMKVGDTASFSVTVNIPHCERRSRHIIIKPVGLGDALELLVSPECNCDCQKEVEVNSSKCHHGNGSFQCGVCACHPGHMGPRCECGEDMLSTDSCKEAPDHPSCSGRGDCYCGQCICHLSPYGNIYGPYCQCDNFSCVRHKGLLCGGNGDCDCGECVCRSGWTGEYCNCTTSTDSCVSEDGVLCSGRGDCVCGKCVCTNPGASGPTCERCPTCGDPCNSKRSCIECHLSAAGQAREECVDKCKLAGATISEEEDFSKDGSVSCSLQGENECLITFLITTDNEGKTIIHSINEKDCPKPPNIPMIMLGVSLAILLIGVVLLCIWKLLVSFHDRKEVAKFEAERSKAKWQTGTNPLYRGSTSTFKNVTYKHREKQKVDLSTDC
In words: competition binding on 293F cells; 2nM m2A2-AF647 competitor.

The target in assay [2] is T2, αvβ5 on the αvβ5-positive parental line (293F:vector) (human, UniProt P06756 31-1048; P18084 24-799).
T2 construct: whole, on cells; HEK293F cells transfected with the empty vector, used as negative control; also called HEK293F:vector
T2 sequence (P18084 24-799, one chain of several): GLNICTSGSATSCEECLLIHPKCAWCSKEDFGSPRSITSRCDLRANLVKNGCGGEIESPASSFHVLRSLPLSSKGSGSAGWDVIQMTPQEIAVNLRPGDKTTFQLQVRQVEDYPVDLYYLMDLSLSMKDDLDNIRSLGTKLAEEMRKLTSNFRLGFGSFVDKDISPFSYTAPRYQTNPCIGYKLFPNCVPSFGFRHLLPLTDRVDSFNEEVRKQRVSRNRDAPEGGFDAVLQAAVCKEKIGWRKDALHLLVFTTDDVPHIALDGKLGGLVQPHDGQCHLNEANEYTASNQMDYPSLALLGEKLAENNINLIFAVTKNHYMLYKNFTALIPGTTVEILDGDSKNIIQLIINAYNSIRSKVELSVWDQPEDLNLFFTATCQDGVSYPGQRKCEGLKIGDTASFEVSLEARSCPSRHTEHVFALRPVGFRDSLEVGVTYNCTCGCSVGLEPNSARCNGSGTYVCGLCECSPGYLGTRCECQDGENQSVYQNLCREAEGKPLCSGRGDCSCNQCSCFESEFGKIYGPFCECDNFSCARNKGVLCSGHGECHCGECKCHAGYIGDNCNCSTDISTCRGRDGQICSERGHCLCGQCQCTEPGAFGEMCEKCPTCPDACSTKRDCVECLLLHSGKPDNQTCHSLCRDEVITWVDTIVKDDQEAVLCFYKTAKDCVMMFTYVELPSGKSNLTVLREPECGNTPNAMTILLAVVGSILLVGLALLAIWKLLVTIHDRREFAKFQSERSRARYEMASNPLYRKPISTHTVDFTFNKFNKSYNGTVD
In words: FMAT and flow cytometry binding studies on cells.

For assay [3], the target named is T3, human αvβ6 on 293F:huβ6 cells (human, UniProt P06756 31-1048; P18564 22-788).
T3 construct: whole, on cells; also called HEK293F:huβ6
The experiment in a line: FMAT and flow cytometry binding studies on cells.

Assay [4] deals with T1, human αvβ6 on 293F:huβ6 cells. The experiment in a line: saturation binding on 293F cells; AF647-labeled.
The target in assay [5] is T4, cyno αvβ6 on 293F:cynoβ6 cells (human;Macaca fascicularis, UniProt P06756 31-1048; A0A2K5TZ36 22-787).
T4 chain 1: T1 chain 1
T4 chain 2: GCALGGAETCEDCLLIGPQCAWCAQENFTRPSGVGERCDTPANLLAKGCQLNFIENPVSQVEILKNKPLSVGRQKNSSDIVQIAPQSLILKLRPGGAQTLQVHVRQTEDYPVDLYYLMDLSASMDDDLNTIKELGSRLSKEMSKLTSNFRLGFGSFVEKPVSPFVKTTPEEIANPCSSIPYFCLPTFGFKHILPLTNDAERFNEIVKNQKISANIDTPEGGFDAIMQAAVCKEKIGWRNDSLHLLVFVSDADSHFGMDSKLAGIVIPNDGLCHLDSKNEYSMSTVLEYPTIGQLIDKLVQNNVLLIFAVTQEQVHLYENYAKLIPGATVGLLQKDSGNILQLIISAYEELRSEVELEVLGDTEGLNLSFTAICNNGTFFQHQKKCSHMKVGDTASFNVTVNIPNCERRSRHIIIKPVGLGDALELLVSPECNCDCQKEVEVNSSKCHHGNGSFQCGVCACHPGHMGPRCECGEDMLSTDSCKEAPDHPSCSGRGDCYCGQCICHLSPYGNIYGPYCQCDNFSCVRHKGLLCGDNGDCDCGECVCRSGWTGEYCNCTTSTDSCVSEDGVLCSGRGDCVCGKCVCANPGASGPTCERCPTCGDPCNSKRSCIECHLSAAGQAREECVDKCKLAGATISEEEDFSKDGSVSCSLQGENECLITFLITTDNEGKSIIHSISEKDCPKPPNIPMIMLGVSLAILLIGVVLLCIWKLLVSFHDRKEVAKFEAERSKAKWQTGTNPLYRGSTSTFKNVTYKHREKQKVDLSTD
The experiment in a line: saturation binding on 293F cells; AF647-labeled.

For assay [6], the target named is T1, human αvβ6 on 293F:huβ6 cells. The experiment in a line: competition binding on 293F cells; 2nM m2A2-AF647 competitor.
Assay [7] has the same target. The description is as above.
Assay [8] shares this target. The experiment in a line: saturation binding on 293F cells; AF647-labeled.
In assay [9] the target is T4, cyno αvβ6 on 293F:cynoβ6 cells. In words: saturation binding on 293F cells; AF647-labeled.
Assay [10] concerns the target T3, human αvβ6 on 293F:huβ6 cells. In words: competition binding by flow cytometry on 293F:huβ6 cells. The protocol:
0.1×10⁶ antigen expressing cells were aliquoted in each well of a 96-well v-bottom plate on ice. The cells were incubated for 1 hour with 2 nM AlexaFluor-647 labeled humanized 2A2 HCLG and increasing concentrations (from 4 pM-1 uM) of unlabeled humanized 2A2 HCLG antibody and h2A2-Mdpr-PEG(12)-gluc-MMAE(8) in buffer (Tris-buffered saline, 2% fetal bovine serum, 0.5 mM MnCl₂, 0.02% NaN₃). Cells were pelleted and washed 3 times with TBS/FBS. The cells were pelleted and resuspended in 125 uL of TBS/FBS. Fluorescent signal of binding was detected using a Becton Dickinson Biosciences LSR II (San Jose, CA). Percent of saturated fluorescent signal was used to determine percent labeled humanized 2A2 antibody bound to cells and to subsequently extrapolate the EC50 by fitting the data to a sigmoidal dose-response curve with variable slope using GraphPad Software (LaJolla, CA).

For assay [11], the target named is T1, human αvβ6 on 293F:huβ6 cells. In words: competition binding on 293F cells.
For assay [12], the target named is T4, cyno αvβ6 on 293F:cynoβ6 cells. The experiment in a line: competition binding on 293F cells.

B1: murine monoclonal antibody 2A2 (antibody, V domains shown)
VH: EFQLQQSGPELVKPGASVKISCKASGYSFTDYNVNWVKQSNGKSLEWIGVINPKYGTTRYNQKFKGKATLTVDKPSSTAYMQLNSLTSEDSAVYYCTRGLNAWDYWGQGASVTVSS
VL: DIQMTQSPASLSASVGETVTITCGASENIYGALNWYQRKQGKSPQLLIYGATNLADGMSSRFSGSGSGRQYSFKISSLHPDDVATYYCQNVLTTPYTFGGGTKLEIK
notes: Mouse hybridoma IgG; also called m2A2; mouse 2A2
With B1, the EC50 in assay [1] was 3 nM; in assay [4], 0.5 nM; in assay [5] it was 0.4 nM; in assay [6] it was 3 nM; in assay [7], 2 nM; in assay [8], 0.5 nM. The same molecule came in with an EC50 in assay [9] of 0.4 nM. The binding result is “no binding” in [2] and “binds” in assay [3].

B2: h2A2-Mdpr-PEG(12)-gluc-MMAE(8) (antibody, human IgG1, kappa, V domains shown)
VH: QFQLVQSGAEVKKPGASVKVSCKASGYSFTDYNVNWVRQAPGQGLEWIGVINPKYGTTRYNQKFKGRATLTVDKSTSTAYMELSSLRSEDTAVYYCTRGLNAWDYWGQGTLVTVSS
VL: DIQMTQSPSSLSASVGDRVTITCGASENIYGALNWYQQKPGKAPKLLIYGATNLEDGVPSRFSGSGSGRDYTFTISSLQPEDIATYYCQNVLTTPYTFGQGTKLEIKR
modifications: SGD-5088 drug-linker (Mdpr-PEG(12)-gluc-MMAE) on cysteines of the reduced interchain disulfides, eight copies of drug-linker per antibody
notes: also called ADC prepared with h2A2 HCLG and the SGD-5088 drug-linker; HCLG ADC
Consider B2, for which, in assay [10], the binding result is reported as “binds”. For the same molecule, the EC50 in [11] and in assay [12] was 4 nM in each case.
